Residue numbers refer to the chain shown, from its start.
What was measured:
[1] = molecular target: T1, PfTrx-Px2Mut2 (Phe139Ala140 replaced by ValSer) (Plasmodium falciparum) (UniProt Q8I5Q6)
T1 sequence: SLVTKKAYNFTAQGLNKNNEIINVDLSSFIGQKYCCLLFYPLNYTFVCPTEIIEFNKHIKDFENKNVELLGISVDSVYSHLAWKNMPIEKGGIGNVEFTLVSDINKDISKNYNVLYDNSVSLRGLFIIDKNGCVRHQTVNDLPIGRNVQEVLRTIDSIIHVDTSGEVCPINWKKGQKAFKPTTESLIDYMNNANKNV

[2] = molecular target: T2, PfTrx-Px2Mut1 (Asn62Tyr63 replaced by AspPhe) (Plasmodium falciparum) (UniProt Q8I5Q6)
T2 sequence: T1 sequence with N43D, Y44F, V120F, S121A

AUC = molecular target: the molecule itself; experiment: AUC

B1: Plasmodium falciparum thioredoxin 2 (PfTrx2), construct PfTrx2-S3 lacking the first 47 amino acids (domain or fragment)
chain: MFKKVPRLQQNGSNIINGVNMKNTVIVLYFFAKWCQACTMQSTEMDKLQKYYGKRIYLLKVDLDKNESLARKFSVKSLPTIILLKNKTMLARKDHFVSSNDLIALIKKHL
- KM^app of PfTrx-Px2Mut2 for Trx2; coupled peroxidase assay [1]: 12.1 µM
- KM^app of PfTrx-Px2Mut1 for Trx2; coupled peroxidase assay [2]: 7.7 µM

B2: Plasmodium falciparum thioredoxin 1 (PfTrx1), cytosolic thioredoxin (natural protein)
chain: MVKIVTSQAEFDSIISQNELVIVDFFAEWCGPCKRIAPFYEECSKTYTKMVFIKVDVDEVSEVTEKENITSMPTFKVYKNGSSVDTLLGANDSALKQLIEKYAA
- KM^app of PfTrx-Px2Mut2 for Trx1; coupled peroxidase assay [1]: 78.8 µM
- KM^app of PfTrx-Px2Mut1 for Trx1; coupled peroxidase assay [2]: 86.2 µM

B3: Plasmodium falciparum mitochondrial peroxiredoxin (PfTrx-Px2), recombinant protein from construct pftrx-px2-2 lacking the first 19 amino acids (enzyme, UniProt Q8I5Q6 20-216, looked up)
chain: T1 sequence with V120F, S121A
- stoichiometry N (AUC): 10

Reference: publication PMC1618809 (Molecular Microbiology, 2006)
